Source: the Human Domainome abundance scans (Beltran et al. 2025)
± gives the uncertainty stated by the source.

B1: POU domain, class 6, transcription factor 2, residues 609 to 663; numbered along this chain, P78424 (parent)
chain: KRRTSFTPQALEILNAHFEKNTHPSGQEMTEIAEKLNYDREVVRVWFCNKRQALK

Variants of: B1
Experiment: abundance fitness (aPCA) (normalised: wild type 0, dead -1); higher = more abundant; growth selection in yeast, the domain comes from the species named
Conditions: Homo sapiens

Row | Variant | abundance fitness
1 | KRRTSFTPQALEILNAHFEKNTHPSGQEMTEYAEKLNYDREVVRVWFCNKRQALK [I32Y] | 0.031 ± 0.36
2 | KRRTSFTPQALEILNAHFEKNTHPSGQEMTESAEKLNYDREVVRVWFCNKRQALK [I32S] | -1.07 ± 0.26
3 | KRRTSFTPQALEILNAHFEKNTHPSGQEMTENAEKLNYDREVVRVWFCNKRQALK [I32N] | -0.838 ± 0.23
4 | KRRTSFTPQALEILNAHFEKNTHPSGQEMTEGAEKLNYDREVVRVWFCNKRQALK [I32G] | -0.705 ± 0.21
5 | KRRTSFTPQALEILNAHFEKNTHPSGQEMTEAAEKLNYDREVVRVWFCNKRQALK [I32A] | -0.679 ± 0.45
6 | KRRTSFTPQALEILNAHFEKNTHPSGQEMTEDAEKLNYDREVVRVWFCNKRQALK [I32D] | -1.16 ± 0.39
7 | KRRTSFTPQALEILNAHFEKNTHPSGQEMTELAEKLNYDREVVRVWFCNKRQALK [I32L] | -0.154 ± 0.17
8 | KRRTSFTPQALEILNAHFEKNTHPSGQEMTEWAEKLNYDREVVRVWFCNKRQALK [I32W] | -0.742 ± 0.24
9 | KRRTSFTPQALEILNAHFEKNTHPSGQEMTEVAEKLNYDREVVRVWFCNKRQALK [I32V] | -0.27 ± 0.14
10 | KRRTSFTPQALEILNAHFEKNTHPSGQEMTEFAEKLNYDREVVRVWFCNKRQALK [I32F] | -0.649 ± 0.32
11 | KRRTSFTPQALEILNAHFEKNTHPSGQEMTEMAEKLNYDREVVRVWFCNKRQALK [I32M] | -0.246 ± 0.28
12 | KRRTSFTPQALEILNAHFEKNTHPSGQEMTERAEKLNYDREVVRVWFCNKRQALK [I32R] | -0.958 ± 0.26
13 | KRRTSFTPQALEILNAHFEKNTHPSGQEMTCIAEKLNYDREVVRVWFCNKRQALK [E31C] | -0.424 ± 0.23
14 | KRRTSFTPQALEILNAHFEKNTHPSGQEMTDIAEKLNYDREVVRVWFCNKRQALK [E31D] | -0.077 ± 0.22
15 | KRRTSFTPQALEILNAHFEKNTHPSGQEMTRIAEKLNYDREVVRVWFCNKRQALK [E31R] | -0.028 ± 0.15
16 | KRRTSFTPQALEILNAHFEKNTHPSGQEMTTIAEKLNYDREVVRVWFCNKRQALK [E31T] | -0.112 ± 0.33
17 | KRRTSFTPQALEILNAHFEKNTHPSGQEMTPIAEKLNYDREVVRVWFCNKRQALK [E31P] | -0.516 ± 0.3
18 | KRRTSFTPQALEILNAHFEKNTHPSGQEMTLIAEKLNYDREVVRVWFCNKRQALK [E31L] | -0.288 ± 0.17
19 | KRRTSFTPQALEILNAHFEKNTHPSGQEMTGIAEKLNYDREVVRVWFCNKRQALK [E31G] | -0.041 ± 0.095
20 | KRRTSFTPQALEILNAHFEKNTHPSGQEMTNIAEKLNYDREVVRVWFCNKRQALK [E31N] | -0.258 ± 0.3
21 | KRRTSFTPQALEILNAHFEKNTHPSGQEMTYIAEKLNYDREVVRVWFCNKRQALK [E31Y] | -0.499 ± 0.26
22 | KRRTSFTPQALEILNAHFEKNTHPSGQEMTIIAEKLNYDREVVRVWFCNKRQALK [E31I] | -0.534 ± 0.24
23 | KRRTSFTPQALEILNAHFEKNTHPSGQEMTKIAEKLNYDREVVRVWFCNKRQALK [E31K] | -0.31 ± 0.23
24 | KRRTSFTPQALEILNAHFEKNTHPSGQEMTVIAEKLNYDREVVRVWFCNKRQALK [E31V] | -0.174 ± 0.12

Row | Variant | abundance fitness
25 | KRRTSFTPQALEILNAHFEKNTHPSGQEMTWIAEKLNYDREVVRVWFCNKRQALK [E31W] | -0.131 ± 0.18
26 | KRRTSFTPQALEILNAHFEKNTHPSGQEMTMIAEKLNYDREVVRVWFCNKRQALK [E31M] | 0.061 ± 0.19
27 | KRRTSFTPQALEILNAHFEKNTHPSGQEMTAIAEKLNYDREVVRVWFCNKRQALK [E31A] | -0.114 ± 0.19
28 | KRRTSFTPQALEILNAHFEKNTHPSGQEMTEIADKLNYDREVVRVWFCNKRQALK [E34D] | -0.428 ± 0.23
29 | KRRTSFTPQALEILNAHFEKNTHPSGQEMTEIANKLNYDREVVRVWFCNKRQALK [E34N] | -0.531 ± 0.3
30 | KRRTSFTPQALEILNAHFEKNTHPSGQEMTEIAQKLNYDREVVRVWFCNKRQALK [E34Q] | -0.194 ± 0.18
31 | KRRTSFTPQALEILNAHFEKNTHPSGQEMTEIARKLNYDREVVRVWFCNKRQALK [E34R] | -0.237 ± 0.2
32 | KRRTSFTPQALEILNAHFEKNTHPSGQEMTEIAVKLNYDREVVRVWFCNKRQALK [E34V] | -0.194 ± 0.15
33 | KRRTSFTPQALEILNAHFEKNTHPSGQEMTEIAMKLNYDREVVRVWFCNKRQALK [E34M] | -0.285 ± 0.29
34 | KRRTSFTPQALEILNAHFEKNTHPSGQEMTEIALKLNYDREVVRVWFCNKRQALK [E34L] | -0.024 ± 0.15
35 | KRRTSFTPQALEILNAHFEKNTHPSGQEMTEIAGKLNYDREVVRVWFCNKRQALK [E34G] | -0.347 ± 0.18
36 | KRRTSFTPQALEILNAHFEKNTHPSGQEMTEIASKLNYDREVVRVWFCNKRQALK [E34S] | -0.047 ± 0.19
37 | KRRTSFTPQALEILNAHFEKNTHPSGQEMTEIACKLNYDREVVRVWFCNKRQALK [E34C] | 0.127 ± 0.27
38 | KRRTSFTPQALEILNAHFEKNTHPSGQEMTEIATKLNYDREVVRVWFCNKRQALK [E34T] | -0.012 ± 0.32
39 | KRRTSFTPQALEILNAHFEKNTHPSGQEMTEICEKLNYDREVVRVWFCNKRQALK [A33C] | -0.199 ± 0.21
40 | KRRTSFTPQALEILNAHFEKNTHPSGQEMTEIDEKLNYDREVVRVWFCNKRQALK [A33D] | -0.669 ± 0.28
41 | KRRTSFTPQALEILNAHFEKNTHPSGQEMTEIREKLNYDREVVRVWFCNKRQALK [A33R] | -0.809 ± 0.27
42 | KRRTSFTPQALEILNAHFEKNTHPSGQEMTEIWEKLNYDREVVRVWFCNKRQALK [A33W] | -1.01 ± 0.34
43 | KRRTSFTPQALEILNAHFEKNTHPSGQEMTEIMEKLNYDREVVRVWFCNKRQALK [A33M] | -0.477 ± 0.27
44 | KRRTSFTPQALEILNAHFEKNTHPSGQEMTEIGEKLNYDREVVRVWFCNKRQALK [A33G] | -0.248 ± 0.12
45 | KRRTSFTPQALEILNAHFEKNTHPSGQEMTEISEKLNYDREVVRVWFCNKRQALK [A33S] | -0.118 ± 0.46
46 | KRRTSFTPQALEILNAHFEKNTHPSGQEMTEIHEKLNYDREVVRVWFCNKRQALK [A33H] | -0.881 ± 0.34
47 | KRRTSFTPQALEILNAHFEKNTHPSGQEMTEIVEKLNYDREVVRVWFCNKRQALK [A33V] | -0.259 ± 0.12
48 | KRRTSFTPQALEILNAHFEKNTHPSGQEMTEIQEKLNYDREVVRVWFCNKRQALK [A33Q] | -0.412 ± 0.28
